Molecular target: Fes (UniProt P07332)
Assay: phosphorylation enrichment, bacterial display (enrichment ratio); higher = better substrate or ligand; peptides without Tyr show the background
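Further: 11-residue human phosphosite peptides and single-mutation variants displayed on the E. coli surface, counted by deep sequencing, each peptide's frequency after selection divided by its frequency in the unselected input library; frequency after pTyr selection over input frequency; kinase dosed for 20-30% of maximal phosphorylation in three min.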

Fes, sequence (P07332 whole entry, looked up): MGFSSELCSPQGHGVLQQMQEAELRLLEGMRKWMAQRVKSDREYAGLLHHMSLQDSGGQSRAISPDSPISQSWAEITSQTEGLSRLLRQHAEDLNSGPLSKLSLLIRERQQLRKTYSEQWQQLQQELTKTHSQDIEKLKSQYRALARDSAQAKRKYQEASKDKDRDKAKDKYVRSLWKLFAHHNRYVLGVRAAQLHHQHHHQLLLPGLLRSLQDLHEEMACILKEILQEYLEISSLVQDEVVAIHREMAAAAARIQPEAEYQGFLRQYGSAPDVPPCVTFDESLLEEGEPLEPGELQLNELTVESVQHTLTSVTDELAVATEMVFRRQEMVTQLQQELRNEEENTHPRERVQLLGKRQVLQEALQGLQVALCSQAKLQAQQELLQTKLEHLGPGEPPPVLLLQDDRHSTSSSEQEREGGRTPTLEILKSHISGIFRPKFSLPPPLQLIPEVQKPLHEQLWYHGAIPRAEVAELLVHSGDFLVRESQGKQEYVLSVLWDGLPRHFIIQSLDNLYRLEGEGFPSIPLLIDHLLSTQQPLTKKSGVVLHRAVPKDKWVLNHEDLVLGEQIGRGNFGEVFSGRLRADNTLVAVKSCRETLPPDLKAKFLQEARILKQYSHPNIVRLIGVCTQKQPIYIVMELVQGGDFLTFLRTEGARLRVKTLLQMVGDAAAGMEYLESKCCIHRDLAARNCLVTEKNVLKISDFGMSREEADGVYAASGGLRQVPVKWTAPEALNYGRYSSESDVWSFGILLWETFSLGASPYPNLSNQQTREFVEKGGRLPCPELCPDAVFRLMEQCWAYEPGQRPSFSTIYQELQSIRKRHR

Sequence	phosphorylation enrichment
RLSVDYGKKSK [TUBA3E_Y161_S162G]	0.879
TKAEKYVNKPK [PLCG1_Y991_A995P]	0.714
EVVGRYSVHNA [MLH1_Y183]	0.717
CRIELYRVVES [IGFBP1_Y181]	1.29
TTTQAYRVDER [PRKN_Y391]	0.758
IKKLIYVFLVI [JAGN1_Y42_H44Y_YF]	1.1
HKLSSYEFDFE [BTK_Y40_Y39S_YF]	1.51
GCKNRYDEDKP [THAP1_Y14_K16E]	0.808
NREGVYTVFAP [TGFBI_Y537]	1.11
PVPKTYDMLKA [PKP2_Y108]	1.02
AFGEVYEGQVS [ALK_Y1131]	1.11
VITDYYVDMKF [MPP4_Y567]	1.23
ETKKQYNSFTY [TMED3_Y85_D86N]	0.753
SARSAYQEAID [SFN_Y151_M155I]	0.994
EPTPSYEVGQR [TSC2_Y1788_G1787S]	0.895
RRAKGYPIFLF [ITGB2_Y125_D128Y_YF]	0.741
SPYAVYRFFTF [RPGRIP1_Y826]	1.33

Sequence	phosphorylation enrichment
SVVMPYEPPEV [TP53_Y220_V218M]	1.12
LNECHYGALIG [BPGM_Y92_R90C]	1.38
PPVVNYEQDAR [FER_Y402_E404Q]	1.18
IHFAIYFLKFS [ARMC9_Y107_L108F_YF]	0.956
GLNKDYRMVVN [HINT1_Y94_G93D]	0.605
NPEACYQRLKK [TK2_Y190_T188A]	0.597
LDYNEYFRNLN [HPRT1_Y198_D201N]	1.14
WTAHSYRMGST [ARHGEF7_Y785]	0.659
AAFNKYDQERF [CDC73_Y293_R292K_YF]	0.785
LLANAYIYDVQ [L1CAM_Y418_V421D]	1.27
CSPLLYKVIMS [OR8D4_Y132_R133K]	1.21
GCKNRYDKGKP [THAP1_Y14_D17G]	0.867
MEVEQYIFVKC [CYBB_Y324_G322E]	1.64
KTVQDYLEKFY [MMP8_Y36]	1.31
CRWKRYQCSHD [GDPD5_Y30_R32C]	0.666
AQVDTYCRHNF [HLA-DRB1_Y107_A103Q_YF]	0.959

Molecular target: Fyn (UniProt P06241)
Assay: as above

Fyn, sequence (P06241 whole entry, looked up): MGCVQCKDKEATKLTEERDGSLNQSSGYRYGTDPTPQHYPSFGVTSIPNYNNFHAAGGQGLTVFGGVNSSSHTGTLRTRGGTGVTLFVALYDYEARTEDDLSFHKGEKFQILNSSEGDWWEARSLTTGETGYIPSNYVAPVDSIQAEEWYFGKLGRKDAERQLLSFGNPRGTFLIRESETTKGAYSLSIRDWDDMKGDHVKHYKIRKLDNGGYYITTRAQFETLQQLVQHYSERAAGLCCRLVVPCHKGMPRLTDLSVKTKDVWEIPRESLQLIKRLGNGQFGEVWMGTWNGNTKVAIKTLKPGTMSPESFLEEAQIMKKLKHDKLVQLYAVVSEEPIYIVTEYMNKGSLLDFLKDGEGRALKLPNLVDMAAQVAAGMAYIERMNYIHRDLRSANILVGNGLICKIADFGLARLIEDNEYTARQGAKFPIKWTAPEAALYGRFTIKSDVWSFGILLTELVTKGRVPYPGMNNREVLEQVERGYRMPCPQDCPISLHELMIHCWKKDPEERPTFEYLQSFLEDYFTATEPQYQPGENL

Sequence	phosphorylation enrichment
RLSVDYGKKSK [TUBA3E_Y161_S162G]	0.702
TKAEKYVNKPK [PLCG1_Y991_A995P]	0.398
EVVGRYSVHNA [MLH1_Y183]	0.487
CRIELYRVVES [IGFBP1_Y181]	0.476
TTTQAYRVDER [PRKN_Y391]	0.482
IKKLIYVFLVI [JAGN1_Y42_H44Y_YF]	0.462
HKLSSYEFDFE [BTK_Y40_Y39S_YF]	0.777
GCKNRYDEDKP [THAP1_Y14_K16E]	0.49
NREGVYTVFAP [TGFBI_Y537]	13.3
PVPKTYDMLKA [PKP2_Y108]	0.764
AFGEVYEGQVS [ALK_Y1131]	0.772
VITDYYVDMKF [MPP4_Y567]	0.881
ETKKQYNSFTY [TMED3_Y85_D86N]	0.592
SARSAYQEAID [SFN_Y151_M155I]	0.434
EPTPSYEVGQR [TSC2_Y1788_G1787S]	0.427
RRAKGYPIFLF [ITGB2_Y125_D128Y_YF]	0.624
SPYAVYRFFTF [RPGRIP1_Y826]	1.79

Sequence	phosphorylation enrichment
SVVMPYEPPEV [TP53_Y220_V218M]	0.56
LNECHYGALIG [BPGM_Y92_R90C]	4.07
PPVVNYEQDAR [FER_Y402_E404Q]	0.636
IHFAIYFLKFS [ARMC9_Y107_L108F_YF]	0.448
GLNKDYRMVVN [HINT1_Y94_G93D]	0.455
NPEACYQRLKK [TK2_Y190_T188A]	0.474
LDYNEYFRNLN [HPRT1_Y198_D201N]	0.49
WTAHSYRMGST [ARHGEF7_Y785]	0.479
AAFNKYDQERF [CDC73_Y293_R292K_YF]	0.485
LLANAYIYDVQ [L1CAM_Y418_V421D]	6.7
CSPLLYKVIMS [OR8D4_Y132_R133K]	0.507
GCKNRYDKGKP [THAP1_Y14_D17G]	0.434
MEVEQYIFVKC [CYBB_Y324_G322E]	0.575
KTVQDYLEKFY [MMP8_Y36]	0.708
CRWKRYQCSHD [GDPD5_Y30_R32C]	0.52
AQVDTYCRHNF [HLA-DRB1_Y107_A103Q_YF]	0.433

Tested on: AncSZ
Assay: as above

Sequence	phosphorylation enrichment
RLSVDYGKKSK [TUBA3E_Y161_S162G]	0.613
TKAEKYVNKPK [PLCG1_Y991_A995P]	0.72
EVVGRYSVHNA [MLH1_Y183]	0.633
CRIELYRVVES [IGFBP1_Y181]	1.2
TTTQAYRVDER [PRKN_Y391]	0.709
IKKLIYVFLVI [JAGN1_Y42_H44Y_YF]	0.884
HKLSSYEFDFE [BTK_Y40_Y39S_YF]	1.83
GCKNRYDEDKP [THAP1_Y14_K16E]	0.856
NREGVYTVFAP [TGFBI_Y537]	1.54
PVPKTYDMLKA [PKP2_Y108]	1.07
AFGEVYEGQVS [ALK_Y1131]	0.974
VITDYYVDMKF [MPP4_Y567]	1.61
ETKKQYNSFTY [TMED3_Y85_D86N]	0.617
SARSAYQEAID [SFN_Y151_M155I]	1.02
EPTPSYEVGQR [TSC2_Y1788_G1787S]	0.726
RRAKGYPIFLF [ITGB2_Y125_D128Y_YF]	0.632
SPYAVYRFFTF [RPGRIP1_Y826]	1.08

Sequence	phosphorylation enrichment
SVVMPYEPPEV [TP53_Y220_V218M]	1.27
LNECHYGALIG [BPGM_Y92_R90C]	0.996
PPVVNYEQDAR [FER_Y402_E404Q]	1.33
IHFAIYFLKFS [ARMC9_Y107_L108F_YF]	0.835
GLNKDYRMVVN [HINT1_Y94_G93D]	0.652
NPEACYQRLKK [TK2_Y190_T188A]	0.63
LDYNEYFRNLN [HPRT1_Y198_D201N]	2.08
WTAHSYRMGST [ARHGEF7_Y785]	0.642
AAFNKYDQERF [CDC73_Y293_R292K_YF]	0.692
LLANAYIYDVQ [L1CAM_Y418_V421D]	1.17
CSPLLYKVIMS [OR8D4_Y132_R133K]	1.06
GCKNRYDKGKP [THAP1_Y14_D17G]	0.597
MEVEQYIFVKC [CYBB_Y324_G322E]	1.74
KTVQDYLEKFY [MMP8_Y36]	1.36
CRWKRYQCSHD [GDPD5_Y30_R32C]	0.559
AQVDTYCRHNF [HLA-DRB1_Y107_A103Q_YF]	0.676

Tested on: Fer (mouse)
Assay: as above

Sequence	phosphorylation enrichment
RLSVDYGKKSK [TUBA3E_Y161_S162G]	0.377
TKAEKYVNKPK [PLCG1_Y991_A995P]	0.442
EVVGRYSVHNA [MLH1_Y183]	0.405
CRIELYRVVES [IGFBP1_Y181]	0.537
TTTQAYRVDER [PRKN_Y391]	0.479
IKKLIYVFLVI [JAGN1_Y42_H44Y_YF]	0.454
HKLSSYEFDFE [BTK_Y40_Y39S_YF]	0.664
GCKNRYDEDKP [THAP1_Y14_K16E]	0.452
NREGVYTVFAP [TGFBI_Y537]	8.74
PVPKTYDMLKA [PKP2_Y108]	0.577
AFGEVYEGQVS [ALK_Y1131]	0.459
VITDYYVDMKF [MPP4_Y567]	1.4
ETKKQYNSFTY [TMED3_Y85_D86N]	0.434
SARSAYQEAID [SFN_Y151_M155I]	0.395
EPTPSYEVGQR [TSC2_Y1788_G1787S]	0.408
RRAKGYPIFLF [ITGB2_Y125_D128Y_YF]	0.581
SPYAVYRFFTF [RPGRIP1_Y826]	0.875

Sequence	phosphorylation enrichment
SVVMPYEPPEV [TP53_Y220_V218M]	0.549
LNECHYGALIG [BPGM_Y92_R90C]	1.35
PPVVNYEQDAR [FER_Y402_E404Q]	0.679
IHFAIYFLKFS [ARMC9_Y107_L108F_YF]	0.485
GLNKDYRMVVN [HINT1_Y94_G93D]	0.448
NPEACYQRLKK [TK2_Y190_T188A]	0.419
LDYNEYFRNLN [HPRT1_Y198_D201N]	0.48
WTAHSYRMGST [ARHGEF7_Y785]	0.482
AAFNKYDQERF [CDC73_Y293_R292K_YF]	0.428
LLANAYIYDVQ [L1CAM_Y418_V421D]	0.802
CSPLLYKVIMS [OR8D4_Y132_R133K]	0.611
GCKNRYDKGKP [THAP1_Y14_D17G]	0.4
MEVEQYIFVKC [CYBB_Y324_G322E]	0.679
KTVQDYLEKFY [MMP8_Y36]	0.562
CRWKRYQCSHD [GDPD5_Y30_R32C]	0.425
AQVDTYCRHNF [HLA-DRB1_Y107_A103Q_YF]	0.628

— the supplement of paper PMC10065799, “High-throughput profiling of sequence recognition by tyrosine kinases and SH2 domains using bacterial peptide display” (eLife, 2023)
